Conditions in all cases: both partners purified
Assay [1] addresses T1, AGO2 (purified as GST-AGO2, GST cleaved) (human, UniProt Q9UKV8 1-859, labelled with Atto 488 NHS ester).
T1 construct: Argonaute 2 (AGO2), human; source: E. coli BL21(DE3), purified (RNase, glutathione superflow resin, Superdex 75; GST cleaved with thrombin)
Kind of assay: MST; 2.29 to 75,000 nM unlabelled DICER1^CT with 100 nM Atto 488-labelled AGO2, no GRB2; 20 mM HEPES, 150 mM NaCl, 1 mM TCEP pH 7.5.

Assay [2] addresses T2, AGO2 pre-incubated with GRB2 (GRB2-AGO2 complex) (human | , UniProt Q9UKV8 1-859; P62993 1-217, labelled with Atto 488 NHS ester).
T2 construct: Argonaute 2 (AGO2), human; as m20; as m12; The complex was not isolated: labelled AGO2 (100 nM) stood with an excess of GRB2; source: E. coli BL21(DE3), both purified; AGO2 incubated with 25 or 50 uM GRB2 before the MST
The experiment in a line: MST; 2.29 to 75,000 nM unlabelled DICER1^CT with 100 nM Atto 488-labelled AGO2 pre-incubated with 50 uM GRB2; 20 mM HEPES, 150 mM NaCl, 1 mM TCEP pH 7.5.

Assay [3] addresses T2, AGO2 pre-incubated with GRB2 (GRB2-AGO2 …). Kind of assay: MST; 2.29 to 75,000 nM unlabelled DICER1^CT with 100 nM Atto 488-labelled AGO2 pre-incubated with 25 uM GRB2; 20 mM HEPES, 150 mM NaCl, 1 mM TCEP pH 7.5.
The target in assay [4] is T3, His-tagged GRB2 (UniProt P62993 1-217).
T3 construct: For the MST with DICER1^CT and AGO2 the text writes only GRB2; also called His-GRB2
T3 sequence (P62993 whole entry): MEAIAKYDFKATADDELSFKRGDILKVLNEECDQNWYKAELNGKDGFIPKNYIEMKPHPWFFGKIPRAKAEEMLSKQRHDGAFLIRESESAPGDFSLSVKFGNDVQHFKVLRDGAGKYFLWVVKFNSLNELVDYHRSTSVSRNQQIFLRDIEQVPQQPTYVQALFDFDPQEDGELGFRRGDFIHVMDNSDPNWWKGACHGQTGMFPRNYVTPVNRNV
The experiment in a line: ITC; 500 uM MBP-tagged AGO2 domain titrated into 20 uM His-tagged GRB2; 25 C; 20 mM Tris-HCl pH 8, 150 mM NaCl, 10% glycerol, 1 mM beta-mercaptoethanol; one-site model with n fixed at 1.

Assay [5] concerns the target T3, His-tagged GRB2. Kind of assay: ITC; 1.2 mM peptide titrated into 80 uM His-tagged GRB2; 25 C; 20 mM Tris-HCl pH 8, 150 mM NaCl, 1 mM beta-mercaptoethanol. On the technique in general: Isothermal titration calorimetry measures the heat released or taken up as one component is titrated into another.

In general, Kd refers to the free concentration of one partner at which half of the binding sites on the other are occupied at equilibrium, for simple one-to-one binding. Higher therefore signals weaker binding. Broadly, the stoichiometry N is a count of units in the complex or per binding partner.

T2 sequence (Q9UKV8 whole entry, chain 1 of 2): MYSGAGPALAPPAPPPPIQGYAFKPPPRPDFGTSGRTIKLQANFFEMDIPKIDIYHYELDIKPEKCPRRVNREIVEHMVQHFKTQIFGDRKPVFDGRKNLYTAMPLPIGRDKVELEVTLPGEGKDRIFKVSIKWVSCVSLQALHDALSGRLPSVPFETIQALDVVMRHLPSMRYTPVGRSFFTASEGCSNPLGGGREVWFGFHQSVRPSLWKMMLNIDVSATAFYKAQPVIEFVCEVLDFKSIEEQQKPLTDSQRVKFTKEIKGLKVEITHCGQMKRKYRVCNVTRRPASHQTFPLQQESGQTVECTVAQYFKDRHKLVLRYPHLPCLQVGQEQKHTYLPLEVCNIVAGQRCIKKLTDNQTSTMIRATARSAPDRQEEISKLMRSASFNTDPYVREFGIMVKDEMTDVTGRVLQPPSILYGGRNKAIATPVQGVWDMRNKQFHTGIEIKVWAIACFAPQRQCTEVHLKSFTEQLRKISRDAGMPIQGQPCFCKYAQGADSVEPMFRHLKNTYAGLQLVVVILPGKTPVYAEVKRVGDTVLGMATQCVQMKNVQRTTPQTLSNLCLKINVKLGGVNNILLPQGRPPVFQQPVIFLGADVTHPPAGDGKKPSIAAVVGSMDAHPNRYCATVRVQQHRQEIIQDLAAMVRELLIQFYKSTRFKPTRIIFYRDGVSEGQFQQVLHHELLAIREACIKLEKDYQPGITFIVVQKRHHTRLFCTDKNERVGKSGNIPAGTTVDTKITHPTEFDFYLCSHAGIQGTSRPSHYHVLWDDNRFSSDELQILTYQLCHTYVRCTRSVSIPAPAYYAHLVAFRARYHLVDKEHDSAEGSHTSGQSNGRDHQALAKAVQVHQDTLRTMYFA
T2 sequence (P62993 whole entry, chain 2 of 2): as the sequence (P62993 whole entry) above
T1 sequence (Q9UKV8 whole entry): as the sequence (Q9UKV8 whole entry, chain 1 of 2) above

B1: C-terminal domain of DICER1 (DICER1^CT, residues 1276-1922) (domain or fragment, UniProt Q9UPY3 1276-1922, looked up)
chain: DSEQSPSIGYSSRTLGPNPGLILQALTLSNASDGFNLERLEMLGDSFLKHAITTYLFCTYPDAHEGRLSYMRSKKVSNCNLYRLGKKKGLPSRMVVSIFDPPVNWLPPGYVVNQDKSNTDKWEKDEMTKDCMLANGKLDEDYEEEDEEEESLMWRAPKEEADYEDDFLEYDQEHIRFIDNMLMGSGAFVKKISLSPFSTTDSAYEWKMPKKSSLGSMPFSSDFEDFDYSSWDAMCYLDPSKAVEEDDFVVGFWNPSEENCGVDTGKQSISYDLHTEQCIADKSIADCVEALLGCYLTSCGERAAQLFLCSLGLKVLPVIKRTDREKALCPTRENFNSQQKNLSVSCAAASVASSRSSVLKDSEYGCLKIPPRCMFDHPDADKTLNHLISGFENFEKKINYRFKNKAYLLQAFTHASYHYNTITDCYQRLEFLGDAILDYLITKHLYEDPRQHSPGVLTDLRSALVNNTIFASLAVKYDYHKYFKAVSPELFHVIDDFVQFQLEKNEMQGMDSELRRSEEDEEKEEDIEVPKAMGDIFESLAGAIYMDSGMSLETVWQVYYPMMRPLIEKFSANVPRSPVRELLEMEPETAKFSPAERTYDGKVRVTVEVVGKGKFKGVGRSYRIAKSAAARRALRSLKANQPQVPNS
modifications: labelled with Atto 488 NHS ester in the MST with GRB2; unlabelled in the MST with AGO2
notes: DICER1, residues 1276-1922, with the RNase III domains; also called DICER1 C-terminal region
Consider B1, for which the Kd in assay [1] is 17.6 ± 1.7 µM; in assay [2], 4.6 ± 0.6 µM; in assay [3], 7.9 ± 1.3 µM.

B2: MBP-tagged AGO2 PAZ domain (residues 235-348) (domain or fragment)
chain: not shown
notes: Argonaute 2 (AGO2), human, PAZ domain, residues 235-348, in pMAL-c5x; The methods say that RNA was left in the PAZ preparation; also called MBP-PAZ; PAZ WT; source: E. coli BL21(DE3), purified (MBPTrap HP, SEC); not shown: MBP, N-terminal, kept
In the case of B2, in assay [4], the dissociation constant (Kd) amounted to 0.585 ± 0.061 µM and the “stoichiometry N” value was found to be 1.

B3: PRM-containing peptide from the AGO2 PAZ domain (residues 317-333) (peptide)
peptide: KLVLRYPHLPCLQVGQE
notes: Argonaute 2 (AGO2), human, PAZ domain, residues 317-333; also called peptide spanning the proline-rich motif 323PHLP326
B3 yielded a Kd in assay [5] of 4.27 ± 1.17 µM.

(Values after publication PMC10276003, “Regulation of microRNA expression by the adaptor protein GRB2” (Scientific Reports, 2023).)
